Source: a protein production outcome set (Wang et al. 2014)

Assay: label from the status in PepcDB records
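Further: failed if final PepcDB status was selected cloned or expressed and not failed if soluble or beyond.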

Sequence	protein production
MEQIILDIIEFLKQFSYFGVVLALTFEFIPAEVVLPMVGYWVYEGDMNFWLAVLAGTLGGTTGPLTLYALGYYGGRPLLIKYGKYFFIKEEQIQKADDFFEKYGPVVAFVGRFVPGVRTLISVPCGMAKMNIWKFSIYTFVAMFPLTTLYVYFGMKLGPHWEKAADVVGQYMLPILGGVILIVASIFVYKYMKKRNKTESI	not failed
MTRIASHRGGTLEFGDSTPHGFTATAAMALEEVEFDLHPTADGAIVVHHDPTLDATTDMTGAIVDMTLAKVKTATIRYGAGSHPMTLEELCALYVDSHVNFRCEIKPGVDGLPYEGFVALVIAGLERHSMLERTTFSSFLLASMDELWKATTRPRLWLVSPSVLQQLGPGAVIETAIAHSIHEIGVHIDTADAGLMAQVQAAGLDFGCWAAHTPSQITKALDLGVKVFTTDRPTLAIALRTEHRMEASV	not failed
MQKPHLLITSAGRRAKLVEYFVKEFKTGRVSTADCSPLASALYMADQHYIVPKIDEVEYIDHLLTLCQDEGVTALLTLIDPELGLLAQATERFQAIGVTVIVSPYAACELCFDKYTMYEYCLRQGIAHARTYATMASFEEALAAGEVQLPVFVKPRNGSASIEVRRVETVEEVEQLFSKNTDLIVQELLVGQELGVDAYVDLISGKVTSIFIKEKLTMRAGETDKSRSVLRDDVFELVEHVLDGSGLVGPLDFDLFDVAGTLYLSEINPRFGGGYPHAYECGVNFPAQLYRNLMHEINVPQIGQYLDDIYMLKHDTVTLISAAELQKIKR	not failed
MSLFKRSVVSEITSHAGVVFSTLVVVWLSVLLVRLLGEAAGGSIGADVVLGLAAFSTITALPTILAVSLFIAVLTTVTRNYRESEMVVWFASGLSLADWLRPVARVAVPIAMLVAALTLVASPWAYRQIGEYRERFEQRSDLSKVTAGQFAESGRGDRVFFAEDPVRPGDELGAVFARSIDPEWLSVLTASNARSETLPNGDRFLVLGEGHRYDLKPGTPEIRLVNFDQYGVRLESKAGEDPMAEARAAAERFSKARSTMQLVQDNTDSSWSQIMWRVAMPLAALNLALLAIPLGAVNPRLGRSGDLLIAGLVGLLYMNMINLSRAWISSGKISFSIGVWAVHAVVALLAAYLLMRRLRVKAPRNAGRGA	failed
MNIPAAEPRARMTLAEFHRLLADQHPFAQVLGIDVVDIGHGTARAVLPARDTHQRLGGIVAGPMLMGLADLTMYAAVVGATGQAGAVTANLTIHFLRKTSGAAVIADARVLKTGRLAMAEAILRCDGADEPVAHVVSAWAVPAP	failed
MRVAIPAEDDRGIKSNVSKHFGRSRYFVFVDIEGEDVKNVEVVEVPFEEHGPGDLPNFIKDHGAKIVLTYGIGRRAIEYFNSLGISVVTGVYGRISDVIKAFIGGKLKIDYDWKEKIEKEH	not failed
MTVNMTKGQAISLQKNDGGTLTAVRMGLGWQAAPRRGLFGSRTREIDLDASAVLFADKQPVDVVFFRHLVSDDGSVRHTGDNLVGGVGQGGDDEAILVDLQRLPVHIDQIVFTVNSFTGQTFQEVQNAFCRLVDETNGEELARYTLAGGGQYTAQIMAKVHRAGAGWQMTALGTPSNGRTFQDLMPAILPHL	failed
MPADWLARPRFVSAFSIVVFLLLAAFGEYVVRIEAERLRVIAQNQVLAEASTIRARLEGELYSTLYLANGLSSYVSAHKALDPAAVKIILSTVFGYGRHLRNIVLAPDNEVRFTYPLKGNEKVIGFRYQDNAEQWRAVKRAMETRTTVLSGPVDLVQGGRGLISRTPVFLPDGEYWGIVALVINIDSLFATINKDRRPARITWALRSNDETGEKGRILFGDAWLFDHDHVNLSIAIPGGSWELAATPAEGWRPPGKRLLVLRIATLALSGLIAALVFLVLFERIRIQHLALHDSLTDLPNRRLLDDRLERAIAQARRNRDGFALLYVDLDDFKPINDRFGHRAGDHVLVEIARRLRGALRRADTVARVGGDEFMLILPGARGRHGAMTVVQKLAGIICQPIGYKGQYLNVSASIGVSTYPENGVTADALISHADGSMYRFKQHRKSPTDINGNQRSGAVSSEVS	failed
MTTPTPIRMLILEDSEDDLLLLLREVRRGGIDPAYERADSAAGLRRALDAGEWDVIVSDYNMPQFGALPALDIVKERGLDVPFIIVSGKIGEDLAVAAMKAGAHDYLMKGNLSRLVPAIERELREADERRRRRQAEEAMHAQFNQISTIFDSLNALVYVVDMNSYELLYLNKFGAQLFGEAWEGRTCHDVLHGGRSTPCDFCTNDKLIMDGKALPPYIWEYQNSISSRWYQCIDKAIRWTDGRMVRMEIAIDITERKEMERMKDEMISAVSHEMHTPLTAMMGFTEFLLENEVDRDLQKNYLKTIYRETERLNELITNFLQLQRLKASMVKFRITPVAVGLLVADVVSLYAAASKKHRIVVECPPDLPPVRGNEEQLYQAISNLVSNAIKYSPDGGDVTIGASAAADIVTLWVRDQGIGISPEFQEKIFERFFRVDNSDRRKVGGAGLGLTLVREIVATHGGRSWVESSPGKGSTFFISLPAMT	failed
SLHEEADHRVTDHGPRPFVVNIEDETKRNRAFRRALWTGDHLQVTLMSIQVGEDIGLEIHPHLDQFLRVEEGRGLVQMGHRQDNLHFQEEVFDDYAILIPAGTWHNVRNTGNRPLKLYSIYAPPQHPHGTVHETKAIAMAAEEHHHL	not failed
PGAAPGLFALESAIDEMALASGMDPLAFRKLNLSDKDQSVGLPWSSNHLPEAIDKAAERFGWQARKAAVGSMREGDEIIGYGMGACNWEAHQVPTDARVVLRSDGTALAQCGLQDIGTGTYTIVAQTVSELTGIPIERVEVELGSSSFPPGPVSGGSWVTASVMPAIAGATREALQKLRQYAISKDAVFAGQDPESIKVENGQLVMGEQRASFVDVLKGQRLSRAEGNFQSGMPEAGKYSFRSFGVHFVEVRWDPGISSLRVSRVVSAIDVGKVINPLAARNQVEGAIVMGIGMALFEAGEYDPRSGMPVNNNYAEYVVPVHADQPDIDVMLLDYPDYNLGEFGARGIGEIGVTGLAAAVANAVYHATGKRVRSLPITKEKLMAGL	failed
MPVGGLLPLFSSPGGGGLGSGLGGGLGGGRKGSGPAAFRLTEKFVLLLVFSAFITLCFGAIFFLPDSSKLLSGVLFHSNPALQPPAEHKPGLGARAEDAAEGRVRHREEGAPGDPGAGLEDNLARIRENHERALREAKETLQKLPEEIQRDILLEKEKVAQDQLRDKDLFRGLPKVDFLPPVGVENREPADATIREKRAKIKEMMTHAWNNYKRYAWGLNELKPISKEGHSSSLFGNIKGATIVDALDTLFIMGMKTEFQEAKSWIKKYLDFNVNAEVSVFEVNIRFVGGLLSAYYLSGEEIFRKKAVELGVKLLPAFHTPSGIPWALLNMKSGIGRNWPWASGGSSILAEFGTLHLEFMHLSHLSGDPVFAEKVMKIRTVLNKLDKPEGLYPNYLNPSSGQWGQHHVSVGGLGDSFYEYLLKAWLMSDKTDLEAKKMYFDAVQAIETHLIRKSSGGLTYIAEWKGGLLEHKMGHLTCFAGGMFALGADGAPEARAQHYLELGAEIARTCHESYNRTYVKLGPEAFRFDGGVEAIATRQNEKYYILRPEVIETYMYMWRLTHDPKYRTWAWEAVEALESHCRVNGGYSGLRDVYIARESYDDVQQSFFLAETLKYLYLIFSDDDLLPLEHWIFNTEAHPFPILREQKKEIDGKEK	not failed
ERLRGVSVEAPTRTGERWNALMDQIVEGVLAWHRIDSHGCVGNVDSTQENDWFSWYQQRVEVLWATLSNMNSPLMTLEDRAVLYRARAALNSLFAGFDDSSVLVHGNLTLRSMLKDPRSDQLLAMLNPGPMLWAPREYDLFRLSEEGMPSQLFYRYLSKAPVSESFVARRWLYTLWELVSRFIHTGNLDRTLFDNAAQQLLPWLE	failed
MTMSTTREIAFLIARILLGVILIAHGWDKFAITGLEGVTGFFDSLGIPAAGIAAIAAAVVELLGGILIILGVFTRIVAAFVAIDMLFAALFAHVSSGIFVTNNGWELTGAIGAGALLLIAVGAGAWSIDGVLAKRKA	failed
MRGEGRRIGAMSETPEIPGSGYRTGEALLRAGDIAGAITAFRGHLAASPDDALGWFALGSALFFAQRWEETRAAYARAAAIDRAYTLGGLLRPGDVETALDPAPFLGQLPEMSMIIPPAHSGPLAVVGCDSAYFLDFGAALALSMDKAAPGWGLHLHLIAPTTPALDLLERLIGGLRAITLSFSLEHLPPALRAPEAQRTYLACLRFMRLPAILDEQQARAGRVPVVVLDADSLMCKPLLGPDDWRPPGPEGGWRAGWDVALKDSGLFPLGPLWRYSASCVGLAPTDEARAFAAHVATLLARQALTVNGLGWMIDQFALAVAIAARQTQSPAFRLGDWPDRLYRLYENPPDAALWSFCSQSKYDDRLYRDMVRLLLAEMG	failed
MGRISSGGMMFKAITTVAALVIATSAMAQDDLTISSLAKGETTKAAFNQMVQGHKLPAWVMKGGTYTPAQTVTLGDETYQVMSACKPHDCGSQRIAVMWSEKSNQMTGLFSTIDEKTSQEKLTWLNVNDALSIDGKTVLFAALTGSLENHPDGFNFK	not failed
MSLSVPFEYTPIAQSVLDECEHLDTASLSDALDSLGIDGGLPGIASQVPGTRCVGIAFTVQYQPVDASEGFRGAANYIDQVPSGSVIVSSNSGRHDCTVWGDIMTHFALANGIKGTVIDGVARDIDTVINCNYPLFSRGRFMQSAKNRTQLKAVQVPLVIDGITIQPGDLMVCDGSGCVVVPQQLAAEVVLRARAVEQTERRIIEAISSGSTLEQARMTYRYDQPWLSEAEHGGTQEGHHHHHH	not failed
MTVAGLWLFAMALGASALGGMLGMASGIFIVPLLVLWGIDVHAAIAASIVSVIACSCGSAAAFLQSGLTHVRLAVVLETATTLGALTSVFLVGAVPVAALYALFAVVLVVSAWQMLARRRDPARASGAPACRWAGALRLHGRYRDPAAGRHRRYRVQRLPLGMSLMYGAGVLSALLGIGSGVLKIPAMDSALRLPLKVSSATSNFMIGVTAAASAAVYFARGEIDPAVAGPVALGSVAGSVLGARILMHVSGERLRLLFVAVLALLAVQMLLMALGVQWPGGGR	failed
MLFSSASFVPIVRRMSRPTILPAYILATLPLVMALLATAVSIGTGDEVVNFFRQYRQAHPALTACMQVITDFGNPLLYLVYGAIFFRARKRGDRHDMRFVAVYIVVQLLVSFLAVRILKIGFGMPRPGTEGPAIPFSFKGVYNSFPSGHTTEIVGAVVPLAWRCKALLPTLALGIYMGIVGYSRIYLGMHHITDVFAGLLLGSVAAWIIHRLADRTPS	failed
TNPQAVIGDSPTTSATQSKAVVVEFSDFQCPYCAKAHDTLKQLLAKHPGEITLVYKHLPLIPIHNEAMPAAKAAWAATQQGKFWEYHDALFSNQKQLGEALYLDIAKKLNLDLEKFNSDRLLADAAISKDIQIAQKLAIAGTPFFIMNSKTFSGGIDLSEIENKL	failed
MTADKISPDMLRFERILAAPAATVWQYLVDPELRARWFMSGPTDLQVGGAFGLTMDHDRLSDEVVPTPDRYKPYVGHRWHERITRYEPPHLLAFTWEDGKAGEVTFALTEIDSGTTRLVLTHTGLRGSEDALNFGGGWHAHLAVLEKRIAGISIPDFWALHAVAEREMEIALVSEA	failed
MTQELQTLEVEEEMMMRKFYELMSRQRLNKKMIMLVLIEIDVGSFEENGEDSKCVTWTERHKPLKGNNAAGVLPLQRLVRDGLLAYGPEVF	failed
MGLFFAQNMMYNHTITVYDRNYELVKVIPDEVDLSKYGHSRFKGKYRGAPVEASFSHNGKYAWISNYQMYGPGFNNPGSDKCHPSQKTDKSFLYRINTETLKIDRVIPVGSVPKFVATSTDENLILVSNWCSWDLSVVDINQNQEIKRIKLGPYPRGIVVDPASETAYVAVMGSYNIAKVNLRDFSVQWLRNIGSSPRHLNIDPAGKYLYASLNGEGKIAKISLPQGNLVKKIATGNAPRSMVLSANGQTLYVVNYGEDTVSKVRTSDMKVLQKVKVEPDPIGITYDPQTREVWVACYSGNIMIFQDLEHHHHHH	not failed
MASTIYTCKECGSDLNLNPNDLFPPDFYFEAGNKGTLSFAAVDAEKFRFEKEDKIMPFFETLNYWGIQRKRTKIKCTSCNHLIGYIYDDGPPLTGGIGQYGFGPSQVIPRAPRYRFKTKARQDGWQYGGLTAFWN	failed
